Results: article PMC7891125 (Cell, 2021)

Target: T1, SARS-Cov2 Spike ectodomain for structural analysis (SARS-CoV-2 Wuhan-Hu-1 (MN908947), UniProt P0DTC2, RRAR > GSAS at residues 682-685 | KV > PP at residues 986-987)
T1 construct: also called trimeric spike
Assay: cryo-EM structure; spike (S ~0.6 μm) with Fab or IgG (1:6 molar ratio), applied to the grid almost immediately
Conditions: both partners purified

B1: Strep-tagged Fab 158 (Fab, V domains shown)
VH: EVQLLESGGDLIQPGGSLRLSCAASGVTVSSNYMSWVRQAPGKGLEWVSIIYPGGSTFYADSVKGRFTISRDNSKNTLYLQMHSLRAEDTAVYYCARDLGSGDMDVWGKGTTVTVSS
VL: DIVMTQSPSFLSASVGDRVTITCRASQGISSYLAWYQQKPGKAPKLLIQAASTLQSGVPSRFSGSGSGTEFTLTISSLQPEDFATYYCQQLNSYRYTFGQGTKVEIK
notes: also called Fab58 (as printed in the crystallization paragraph); source: HEK293T, transient transfection, purified (Strep-Tactin)
B1: binds.

B2: Strep-tagged Fab88 (Fab, V domains shown)
VH: QLQLQESGPGLVKPSQTLSLTCTVSGGSISSGSYNWTWIRQPAGKGLEWIGRIYNSGSTNYNPSLKSRVTISVDTSKNQLSLKVRSVTAADTAVYYCARHCSGGTCYPKYYYGMDVWGQGTTVTVSS
VL: QSALTQPPSVSEAPRQRVTISCSGSSSNIGNNAVNWYQQFPGKAPKLLIYYDDLLPSGVSDRFSGSKSGTSASLAISGVQSEDEADYYCAAWDDSLNVVVFGGGTKLTVL
notes: source: HEK293T, transient transfection, purified (Strep-Tactin)
For B2, the “stoichiometry N” value was 3 Fabs/trimer.

B3: Strep-tagged Fab150 (Fab, V domains shown)
VH: QVQLVESGGGLIQPGGSLRLSCAASGVTVSSNYMSWVRQAPGKGLEWVSIIYSGGTTYYADSVKGRFTISRDSSMNTLYLQMNSLRAEDTAVYYCARDLMVYGIDVWGQGTTVTVSS
VL: EIVMTQSPSSLSASVGDRVTITCRASQGISSYLAWYQQKPGKAPKLLIYAASTLQSGVPSRFSGSGSGTDFTLTISSLQPEDFATYYCQQLDSYPPGYTFGQGTKVDIK
notes: as for B2
B3: binds.

B4: Fab 253H165L (Fab, V domains shown)
VH: not shown
VL: DIVMTQSPGTLSLSPGERATLSCRASQSVRSSYLAWYQQKPGQAPRLLIYGASRRGTGIPDRFSGSGSGTDFTLTISRLEPEDFAVYYCQQYGSSPWTFGQGTKVEIK
notes: also called chimera 253H165L
B4: binds.

B5: Strep-tagged Fab316 (Fab, V domains shown)
VH: not shown
VL: QAVLTQPPSASGSPGQSVTISCTGTSSDVGGYNYVSWYQQHPGKAPKLMIYEVSKRPSGVPDRFSGSKSGNTASLTVSGLQAEDEADYYCSSYAGSNHWVFGGGTKLTVL
For B5, the “stoichiometry N” value was 3 Fabs/trimer.
